Experiments:
[1] = molecular target: 16A-cys(i)-less (TMEM16A with all cysteines of the cytosolic portion replaced with serines); assay: cross-linking; harvested transfected HEK-293 cells in PBS with 300 uM 1,5-pentanediyl bismethanethiosulfonate, 15 min, room temperature; stopped with Laemmli buffer or reversed with 33 mM DTT; SDS-PAGE and Western blot with SP31 antibody
[2] = molecular target: 16A-cys(i)-less R494C/K921C; assay: as above
[3] = molecular target: TMEM16A fused to a fluorescent protein (eGFP-TMEM16A, TMEM16A-eGFP, TMEM16A-mCherry); assay: FRET or BRET; acceptor photobleaching FRET, confocal microscope, HEK-293 cells co-transfected with eGFP-TMEM16A (donor) and TMEM16A-mCherry (acceptor): NT-CT configuration

Sequence of TMEM16A fused to a fluorescent protein (eGFP-TMEM16A, TMEM16A-eGFP, TMEM16A-mCherry) (Q5XXA6 whole entry, the tested form may be a part): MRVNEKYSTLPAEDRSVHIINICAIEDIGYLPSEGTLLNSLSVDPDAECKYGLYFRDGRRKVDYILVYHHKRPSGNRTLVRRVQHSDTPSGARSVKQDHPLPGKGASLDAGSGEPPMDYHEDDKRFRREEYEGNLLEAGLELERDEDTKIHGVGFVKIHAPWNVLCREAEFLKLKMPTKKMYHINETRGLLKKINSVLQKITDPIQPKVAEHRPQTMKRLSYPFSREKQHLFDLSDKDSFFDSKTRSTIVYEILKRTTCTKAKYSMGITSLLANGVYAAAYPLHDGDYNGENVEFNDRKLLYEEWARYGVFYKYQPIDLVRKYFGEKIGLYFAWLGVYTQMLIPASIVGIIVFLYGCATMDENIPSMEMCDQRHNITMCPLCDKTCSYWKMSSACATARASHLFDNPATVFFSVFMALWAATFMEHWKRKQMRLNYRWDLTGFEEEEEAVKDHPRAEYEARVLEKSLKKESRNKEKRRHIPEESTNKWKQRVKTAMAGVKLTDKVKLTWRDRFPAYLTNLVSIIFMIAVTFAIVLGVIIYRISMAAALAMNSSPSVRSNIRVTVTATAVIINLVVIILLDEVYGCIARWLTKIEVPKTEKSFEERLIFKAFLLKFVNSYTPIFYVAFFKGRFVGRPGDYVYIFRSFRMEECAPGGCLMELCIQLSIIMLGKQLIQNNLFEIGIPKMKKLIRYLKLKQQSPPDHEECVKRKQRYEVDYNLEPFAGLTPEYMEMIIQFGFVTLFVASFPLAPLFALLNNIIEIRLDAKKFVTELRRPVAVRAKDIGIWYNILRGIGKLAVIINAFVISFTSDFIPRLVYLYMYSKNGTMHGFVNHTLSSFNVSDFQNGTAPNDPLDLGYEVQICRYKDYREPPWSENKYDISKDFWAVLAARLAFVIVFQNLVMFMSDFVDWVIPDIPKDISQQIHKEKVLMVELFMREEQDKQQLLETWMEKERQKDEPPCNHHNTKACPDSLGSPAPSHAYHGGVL

Work on “16A-cys(i)-less (TMEM16A with all cysteines of the cytosolic portion replaced with serines) (natural protein)” yielded a stoichiometry N [1] of 2.
With “16A-cys(i)-less R494C/K921C (natural protein)” the stoichiometry N [2] was 2.
Work on “TMEM16A fused to a fluorescent protein (eGFP-TMEM16A, TMEM16A-eGFP, TMEM16A-mCherry) (natural protein)” yielded an FRET efficiency [3] of 7.44%.

From paper PMC5144075
